Target: BMAL1 acetylated at Lys537 (ectopically expressed together with CLOCK), Q9WTL8
Sequence (Q9WTL8 other isoform, or with tags, fused parts or gaps): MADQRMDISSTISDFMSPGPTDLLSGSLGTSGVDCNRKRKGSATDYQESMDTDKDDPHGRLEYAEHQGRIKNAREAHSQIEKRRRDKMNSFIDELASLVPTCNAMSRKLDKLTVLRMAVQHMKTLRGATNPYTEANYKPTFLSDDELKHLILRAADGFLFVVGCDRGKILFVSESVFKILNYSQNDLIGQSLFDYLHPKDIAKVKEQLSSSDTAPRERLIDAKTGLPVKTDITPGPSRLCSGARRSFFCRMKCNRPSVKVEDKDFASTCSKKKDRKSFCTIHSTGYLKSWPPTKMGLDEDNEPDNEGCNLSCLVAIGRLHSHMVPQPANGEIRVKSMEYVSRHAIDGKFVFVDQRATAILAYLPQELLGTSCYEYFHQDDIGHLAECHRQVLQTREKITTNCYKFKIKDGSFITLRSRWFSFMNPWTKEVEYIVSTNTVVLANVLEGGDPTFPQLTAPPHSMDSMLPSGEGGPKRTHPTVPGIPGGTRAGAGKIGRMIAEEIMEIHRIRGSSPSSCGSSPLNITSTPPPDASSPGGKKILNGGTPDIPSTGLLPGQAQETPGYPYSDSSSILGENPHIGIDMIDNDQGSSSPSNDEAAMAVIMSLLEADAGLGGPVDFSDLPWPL

B1: Recombinant SIRT1 of the SIRT1 Fluorimetric Activity Assay/Drug Discovery Kit (AK-555; BIOMOL International) (protein)
chain: MADEAALALQPGGSPSAAGADREAASSPAGEPLRKRPRRDGPGLERSPGEPGGAAPEREVPAAARGCPGAAAAALWREAEAEAAAAGGEQEAQATAAAGEGDNGPGLQGPSREPPLADNLYDEDDDDEGEEEEEAAAAAIGYRDNLLFGDEIITNGFHSCESDEEDRASHASSSDWTPRPRIGPYTFVQQHLMIGTDPRTILKDLLPETIPPPELDDMTLWQIVINILSEPPKRKKRKDINTIEDAVKLLQECKKIIVLTGAGVSVSCGIPDFRSRDGIYARLAVDFPDLPDPQAMFDIEYFRKDPRPFFKFAKEIYPGQFQPSLCHKFIALSDKEGKLLRNYTQNIDTLEQVAGIQRIIQCHGSFATASCLICKYKVDCEAVRGDIFNQVVPRCPRCPADEPLAIMKPEIVFFGENLPEQFHRAMKYDKDEVDLLIVIGSSLKVRPVALIPSSIPHEVPQILINREPLPHLHFDVELLGDCDVIINELCHRLGGEYAKLCCNPVKLSEITEKPPRTQKELAYLSELPPTPLHVSEDSSSPERTSPPDSSVIVTLLDQAAKSNDDLDVSESKGCMEEKPQEVQTSRNVESIAEQMENPDLKNVGSSTGEKNERTSVAGTVRKCWPNRVAKEQISRRLDGNQYLFLPPNRYIFHGAEVYSDSEDDVLSSSSCGSNSDSGTCQSPSLEEPMEDESEIEEFYNGLEDEPDVPERAGGAGFGTDGDDQEAINEAISVKQEVTDMNYPSNKS
With B1 the “in vitro deacetylation assay (immunoprecipitated Ac-BMAL1 with recombinant SIRT1, 5 mM NAD+ or 10 mM NAM, 90 min at 37 C; Western with Ac-BMAL1 antibody)” value was “SIRT1 readily deacetylates BMAL1 in an in vitro deacetylation assay”.
